Series [1] deals with T1, RHD-CBFb complex (UniProt Q01196;Q13951 50-178;1-141). Description: fluorescence anisotropy. On the technique in general: In fluorescence polarisation assays a small probe gives low polarisation when free and higher when bound to something large.
Series [2] addresses T1, RHD-CBFb complex. Description: fluorescence anisotropy. This is another data set of the same source.

T1 sequence (Q01196 50-178, chain 1 of 2): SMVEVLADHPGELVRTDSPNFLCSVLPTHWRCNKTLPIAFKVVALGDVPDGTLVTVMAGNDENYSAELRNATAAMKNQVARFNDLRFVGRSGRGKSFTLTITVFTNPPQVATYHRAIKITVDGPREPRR
T1 sequence (Q13951 1-141, chain 2 of 2): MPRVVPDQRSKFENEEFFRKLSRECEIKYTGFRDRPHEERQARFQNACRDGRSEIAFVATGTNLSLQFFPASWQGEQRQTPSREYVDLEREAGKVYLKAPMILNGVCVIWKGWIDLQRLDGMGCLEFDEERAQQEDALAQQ

Turning to ATTACCGGCGAGTTTTGAACCGCGTAAT (ssDNA) [DNA Apt28A], in the series with RHD-CBFb complex [1], the binding result is reported as “no binding”.

What is called Kd is the free concentration of one partner at which half of the binding sites on the other are occupied at equilibrium, for simple one-to-one binding. On to AUUACCGGCGAGUUUUGAACCGCGUAAU (structured_RNA, none) [Apt28A], for which the affinity with RHD-CBFb complex [2], expressed as Kd, was 108 ± 34 nM.

For the molecule GGUCCAGGCGCGUUAGCAAAACCGCGGAUC (structured_RNA, none) [Apt45A], the equilibrium dissociation constant (Kd) with RHD-CBFb complex [2] was found to be 162 ± 102 nM.

For the origin of these results see paper PMC2777437.
